Test results taken from article PMC9482650, “Quantitative fragmentomics allow affinity mapping of interactomes” (Nature Communications, 2022).

These binders were tested against Q9UMS6 (assay: holdup assay). Settings: plain residues with an end cap or a label only (N-terminal biotin on a linker: ttds).
Design: key: below the threshold = too weak to quantify, mostly under pKd 3.1 to 4

Binder | pKd
SVWLRKETRV [CYSLTR2, Q9NS75] | below the threshold
STLTIFETAL [ABCC4, O15439] | below the threshold
QSARYRDTEL [TJP2, Q9UDY2] | below the threshold

These binders were tested against Q96FS4 (assay: holdup assay). Settings: plain residues with an end cap or a label only (N-terminal biotin on a linker: ttds).
Design: key: below the threshold = too weak to quantify, mostly under pKd 3.1 to 4

Binder | pKd
SVWLRKETRV [CYSLTR2, Q9NS75] | below the threshold
STLTIFETAL [ABCC4, O15439] | below the threshold
QSARYRDTEL [TJP2, Q9UDY2] | below the threshold

The binders below were run against Q96SB3 (assay: holdup assay). Settings: plain residues with an end cap or a label only (N-terminal biotin on a linker: ttds).
Design: key: below the threshold = too weak to quantify, mostly under pKd 3.1 to 4

Binder | pKd
SVWLRKETRV [CYSLTR2, Q9NS75] | below the threshold
STLTIFETAL [ABCC4, O15439] | below the threshold
QSARYRDTEL [TJP2, Q9UDY2] | below the threshold

Each binder was assayed against Q96HC4 (assay: holdup assay). Settings: plain residues with an end cap or a label only (N-terminal biotin on a linker: ttds).
Design: key: below the threshold = too weak to quantify, mostly under pKd 3.1 to 4

Binder | pKd
SVWLRKETRV [CYSLTR2, Q9NS75] | below the threshold
STLTIFETAL [ABCC4, O15439] | below the threshold
QSARYRDTEL [TJP2, Q9UDY2] | below the threshold

Each binder was assayed against Q12923 (assay: holdup assay). Settings: plain residues with an end cap or a label only (N-terminal biotin on a linker: ttds).
Design: key: below the threshold = too weak to quantify, mostly under pKd 3.1 to 4

Binder | pKd
SVWLRKETRV [CYSLTR2, Q9NS75] | below the threshold
STLTIFETAL [ABCC4, O15439] | below the threshold
QSARYRDTEL [TJP2, Q9UDY2] | below the threshold

Each binder was assayed against Q6ZWJ1 (assay: holdup assay). Settings: plain residues with an end cap or a label only (N-terminal biotin on a linker: ttds).
Design: key: below the threshold = too weak to quantify, mostly under pKd 3.1 to 4

Binder | pKd
SVWLRKETRV [CYSLTR2, Q9NS75] | below the threshold
STLTIFETAL [ABCC4, O15439] | below the threshold
QSARYRDTEL [TJP2, Q9UDY2] | below the threshold

These binders were tested against Q8IUC4 (assay: holdup assay). Settings: plain residues with an end cap or a label only (N-terminal biotin on a linker: ttds).
Design: key: below the threshold = too weak to quantify, mostly under pKd 3.1 to 4

Binder | pKd
SVWLRKETRV [CYSLTR2, Q9NS75] | below the threshold
STLTIFETAL [ABCC4, O15439] | below the threshold
QSARYRDTEL [TJP2, Q9UDY2] | below the threshold

What follows are binders tested against O00233 (assay: holdup assay). Settings: plain residues with an end cap or a label only (N-terminal biotin on a linker: ttds).
Design: key: below the threshold = too weak to quantify, mostly under pKd 3.1 to 4

Binder | pKd
SVWLRKETRV [CYSLTR2, Q9NS75] | below the threshold
STLTIFETAL [ABCC4, O15439] | below the threshold
QSARYRDTEL [TJP2, Q9UDY2] | below the threshold

These binders were tested against Q9C0E4 (assay: holdup assay). Settings: plain residues with an end cap or a label only (N-terminal biotin on a linker: ttds).
Design: key: below the threshold = too weak to quantify, mostly under pKd 3.1 to 4

Binder | pKd
SVWLRKETRV [CYSLTR2, Q9NS75] | below the threshold
STLTIFETAL [ABCC4, O15439] | below the threshold
QSARYRDTEL [TJP2, Q9UDY2] | below the threshold

The binders below were run against Q9UDY2 (assay: holdup assay). Settings: plain residues with an end cap or a label only (N-terminal biotin on a linker: ttds).
Design: key: below the threshold = too weak to quantify, mostly under pKd 3.1 to 4

Binder | pKd
SVWLRKETRV [CYSLTR2, Q9NS75] | below the threshold
STLTIFETAL [ABCC4, O15439] | below the threshold
QSARYRDTEL [TJP2, Q9UDY2] | below the threshold

What follows are binders tested against O75970 (assay: holdup assay). Settings: plain residues with an end cap or a label only (N-terminal biotin on a linker: ttds).
Design: key: below the threshold = too weak to quantify, mostly under pKd 3.1 to 4

Binder | pKd
SVWLRKETRV [CYSLTR2, Q9NS75] | below the threshold
STLTIFETAL [ABCC4, O15439] | below the threshold
QSARYRDTEL [TJP2, Q9UDY2] | below the threshold

What follows are binders tested against O00560 (assay: holdup assay). Settings: plain residues with an end cap or a label only (N-terminal biotin on a linker: ttds).
Design: key: below the threshold = too weak to quantify, mostly under pKd 3.1 to 4

Binder | pKd
SVWLRKETRV [CYSLTR2, Q9NS75] | below the threshold
STLTIFETAL [ABCC4, O15439] | below the threshold
QSARYRDTEL [TJP2, Q9UDY2] | below the threshold

The binders below were run against Q9NPB6 (assay: holdup assay). Settings: plain residues with an end cap or a label only (N-terminal biotin on a linker: ttds).
Design: key: below the threshold = too weak to quantify, mostly under pKd 3.1 to 4

Binder | pKd
SVWLRKETRV [CYSLTR2, Q9NS75] | below the threshold
STLTIFETAL [ABCC4, O15439] | below the threshold
QSARYRDTEL [TJP2, Q9UDY2] | below the threshold

What follows are binders tested against Q96JY6 (assay: holdup assay). Settings: plain residues with an end cap or a label only (N-terminal biotin on a linker: ttds).
Design: key: below the threshold = too weak to quantify, mostly under pKd 3.1 to 4

Binder | pKd
SVWLRKETRV [CYSLTR2, Q9NS75] | below the threshold
STLTIFETAL [ABCC4, O15439] | below the threshold
QSARYRDTEL [TJP2, Q9UDY2] | below the threshold

Each binder was assayed against Q8TB45 (assay: holdup assay). Settings: plain residues with an end cap or a label only (N-terminal biotin on a linker: ttds).
Design: key: below the threshold = too weak to quantify, mostly under pKd 3.1 to 4

Binder | pKd
SVWLRKETRV [CYSLTR2, Q9NS75] | below the threshold

Each binder was assayed against Q13368 (assay: holdup assay). Settings: plain residues with an end cap or a label only (N-terminal biotin on a linker: ttds).
Design: key: below the threshold = too weak to quantify, mostly under pKd 3.1 to 4

Binder | pKd
SVWLRKETRV [CYSLTR2, Q9NS75] | below the threshold
STLTIFETAL [ABCC4, O15439] | below the threshold
QSARYRDTEL [TJP2, Q9UDY2] | below the threshold

Each binder was assayed against Q70Z35 (assay: holdup assay). Settings: plain residues with an end cap or a label only (N-terminal biotin on a linker: ttds).
Design: key: below the threshold = too weak to quantify, mostly under pKd 3.1 to 4

Binder | pKd
SVWLRKETRV [CYSLTR2, Q9NS75] | below the threshold
STLTIFETAL [ABCC4, O15439] | below the threshold
QSARYRDTEL [TJP2, Q9UDY2] | below the threshold

These binders were tested against Q9P227 (assay: holdup assay). Settings: plain residues with an end cap or a label only (N-terminal biotin on a linker: ttds).
Design: key: below the threshold = too weak to quantify, mostly under pKd 3.1 to 4

Binder | pKd
SVWLRKETRV [CYSLTR2, Q9NS75] | below the threshold
STLTIFETAL [ABCC4, O15439] | below the threshold
QSARYRDTEL [TJP2, Q9UDY2] | below the threshold

Each binder was assayed against O43166 (assay: holdup assay). Settings: plain residues with an end cap or a label only (N-terminal biotin on a linker: ttds).
Design: key: below the threshold = too weak to quantify, mostly under pKd 3.1 to 4

Binder | pKd
SVWLRKETRV [CYSLTR2, Q9NS75] | below the threshold
STLTIFETAL [ABCC4, O15439] | below the threshold
QSARYRDTEL [TJP2, Q9UDY2] | below the threshold

Each binder was assayed against Q9ULJ8 (assay: holdup assay). Settings: plain residues with an end cap or a label only (N-terminal biotin on a linker: ttds).
Design: key: below the threshold = too weak to quantify, mostly under pKd 3.1 to 4

Binder | pKd
SVWLRKETRV [CYSLTR2, Q9NS75] | below the threshold
STLTIFETAL [ABCC4, O15439] | below the threshold
QSARYRDTEL [TJP2, Q9UDY2] | below the threshold

The binders below were run against Q9NR12 (assay: holdup assay). Settings: plain residues with an end cap or a label only (N-terminal biotin on a linker: ttds).
Design: key: below the threshold = too weak to quantify, mostly under pKd 3.1 to 4

Binder | pKd
SVWLRKETRV [CYSLTR2, Q9NS75] | below the threshold
STLTIFETAL [ABCC4, O15439] | below the threshold
QSARYRDTEL [TJP2, Q9UDY2] | below the threshold

What follows are binders tested against O15021 (assay: holdup assay). Settings: plain residues with an end cap or a label only (N-terminal biotin on a linker: ttds).
Design: key: below the threshold = too weak to quantify, mostly under pKd 3.1 to 4

Binder | pKd
SVWLRKETRV [CYSLTR2, Q9NS75] | below the threshold
STLTIFETAL [ABCC4, O15439] | below the threshold
QSARYRDTEL [TJP2, Q9UDY2] | below the threshold

These binders were tested against O60759 (assay: holdup assay). Settings: plain residues with an end cap or a label only (N-terminal biotin on a linker: ttds).
Design: key: below the threshold = too weak to quantify, mostly under pKd 3.1 to 4

Binder | pKd
SVWLRKETRV [CYSLTR2, Q9NS75] | below the threshold
STLTIFETAL [ABCC4, O15439] | below the threshold
QSARYRDTEL [TJP2, Q9UDY2] | below the threshold

Each binder was assayed against Q96JB8 (assay: holdup assay). Settings: plain residues with an end cap or a label only (N-terminal biotin on a linker: ttds).
Design: key: below the threshold = too weak to quantify, mostly under pKd 3.1 to 4

Binder | pKd
SVWLRKETRV [CYSLTR2, Q9NS75] | below the threshold
STLTIFETAL [ABCC4, O15439] | below the threshold
QSARYRDTEL [TJP2, Q9UDY2] | below the threshold

What follows are binders tested against Q8TDM6 (assay: holdup assay). Settings: plain residues with an end cap or a label only (N-terminal biotin on a linker: ttds).
Design: key: below the threshold = too weak to quantify, mostly under pKd 3.1 to 4

Binder | pKd
SVWLRKETRV [CYSLTR2, Q9NS75] | below the threshold

These binders were tested against Q13009 (assay: holdup assay). Settings: plain residues with an end cap or a label only (N-terminal biotin on a linker: ttds).
Design: key: below the threshold = too weak to quantify, mostly under pKd 3.1 to 4

Binder | pKd
SVWLRKETRV [CYSLTR2, Q9NS75] | below the threshold
STLTIFETAL [ABCC4, O15439] | below the threshold
QSARYRDTEL [TJP2, Q9UDY2] | below the threshold

Each binder was assayed against NHERF4_3, Q86UT5 (assay: holdup assay). Settings: plain residues with an end cap or a label only (N-terminal biotin on a linker: ttds).
Sequence of NHERF4_3, Q86UT5 (Q86UT5 325-412): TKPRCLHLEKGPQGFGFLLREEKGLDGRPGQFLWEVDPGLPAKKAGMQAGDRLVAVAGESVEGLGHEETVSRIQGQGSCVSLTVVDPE
Design: key: below the threshold = too weak to quantify, mostly under pKd 3.1 to 4

Binder | pKd
SVWLRKETRV [CYSLTR2, Q9NS75] | below the threshold
QSARYRDTEL [TJP2, Q9UDY2] | below the threshold

These binders were tested against Q5TCQ9 (assay: holdup assay). Settings: plain residues with an end cap or a label only (N-terminal biotin on a linker: ttds).
Design: key: below the threshold = too weak to quantify, mostly under pKd 3.1 to 4

Binder | pKd
SVWLRKETRV [CYSLTR2, Q9NS75] | below the threshold
STLTIFETAL [ABCC4, O15439] | below the threshold
QSARYRDTEL [TJP2, Q9UDY2] | below the threshold

What follows are binders tested against Q9H190 (assay: holdup assay). Settings: plain residues with an end cap or a label only (N-terminal biotin on a linker: ttds).
Design: key: below the threshold = too weak to quantify, mostly under pKd 3.1 to 4

Binder | pKd
SVWLRKETRV [CYSLTR2, Q9NS75] | below the threshold
STLTIFETAL [ABCC4, O15439] | below the threshold
QSARYRDTEL [TJP2, Q9UDY2] | below the threshold
